Source: patent publication US20210363265A1 (INVENRA, published 2021)
Values belong to the binder of their own block, whether it stands above or below them.

Experiments:
OX40: 66-214-Fc = biological target: T1, OX40: 66-214-Fc (human); test: BLI, OX40-Fc fragment immobilized on sensor
T1 construct: Immobilized on the BLI sensor; also called first truncation

[1] = biological target: T2, OX40 on T cells (primary naive CD4+ T cells; Jurkat/OX40 reporter cells) (UniProt P43489 29-277, limits assumed); test: cell-based or functional assay
T2 sequence (looked up): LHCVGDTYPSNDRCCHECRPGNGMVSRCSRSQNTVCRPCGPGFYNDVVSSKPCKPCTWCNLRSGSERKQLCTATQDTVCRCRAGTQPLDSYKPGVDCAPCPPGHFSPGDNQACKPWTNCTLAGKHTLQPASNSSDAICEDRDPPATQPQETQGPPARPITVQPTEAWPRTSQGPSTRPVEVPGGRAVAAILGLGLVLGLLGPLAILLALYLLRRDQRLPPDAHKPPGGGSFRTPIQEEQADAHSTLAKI

OX40: 127-214-Fc = biological target: T3, OX40: 127-214-Fc (human); test: BLI, OX40-Fc truncation immobilized on sensor
T3 construct: Immobilized on the BLI sensor

OX40: 108-214-Fc = biological target: T4, OX40: 108-214-Fc (human); test: BLI, OX40-Fc fragment immobilized on sensor
T4 construct: Immobilized on the BLI sensor
T4 sequence (chain, as listed by the source): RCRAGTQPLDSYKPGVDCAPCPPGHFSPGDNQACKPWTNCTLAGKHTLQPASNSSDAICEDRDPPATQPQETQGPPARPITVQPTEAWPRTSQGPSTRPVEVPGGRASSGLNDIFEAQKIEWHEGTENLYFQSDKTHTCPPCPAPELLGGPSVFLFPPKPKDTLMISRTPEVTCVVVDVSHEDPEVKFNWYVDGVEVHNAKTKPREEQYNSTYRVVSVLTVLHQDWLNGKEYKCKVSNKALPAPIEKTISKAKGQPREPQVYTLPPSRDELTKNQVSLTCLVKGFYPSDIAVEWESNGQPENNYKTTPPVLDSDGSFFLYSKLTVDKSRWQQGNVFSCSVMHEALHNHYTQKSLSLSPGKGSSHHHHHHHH

T3 sequence (chain, as listed by the source): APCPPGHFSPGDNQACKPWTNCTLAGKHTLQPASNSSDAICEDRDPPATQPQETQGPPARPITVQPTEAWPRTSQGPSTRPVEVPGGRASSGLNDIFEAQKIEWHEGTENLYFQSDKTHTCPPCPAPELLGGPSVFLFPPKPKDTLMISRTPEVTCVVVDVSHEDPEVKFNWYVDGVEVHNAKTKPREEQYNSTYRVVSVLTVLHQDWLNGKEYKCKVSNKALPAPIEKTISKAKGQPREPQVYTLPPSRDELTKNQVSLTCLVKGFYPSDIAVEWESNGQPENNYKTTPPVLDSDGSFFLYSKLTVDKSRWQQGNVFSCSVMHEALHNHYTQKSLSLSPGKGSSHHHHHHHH
T1 sequence (chain, as listed by the source): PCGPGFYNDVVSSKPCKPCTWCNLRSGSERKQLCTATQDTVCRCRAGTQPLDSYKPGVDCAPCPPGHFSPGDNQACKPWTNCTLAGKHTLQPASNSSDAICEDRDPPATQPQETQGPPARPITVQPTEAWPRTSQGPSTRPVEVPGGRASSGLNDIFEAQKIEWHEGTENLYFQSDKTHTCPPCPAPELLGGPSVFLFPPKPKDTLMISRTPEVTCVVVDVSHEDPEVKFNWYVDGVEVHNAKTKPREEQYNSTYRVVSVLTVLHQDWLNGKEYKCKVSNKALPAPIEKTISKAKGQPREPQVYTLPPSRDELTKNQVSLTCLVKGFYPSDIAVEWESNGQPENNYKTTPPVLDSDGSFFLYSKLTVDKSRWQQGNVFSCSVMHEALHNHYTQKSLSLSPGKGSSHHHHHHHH

B2: OX40:24-24×11 (bispecific antibody)
chain 1: not shown
chain 2: EVQLVESGGGLVQPGGSLRLSCAASGFTFLSYYIHWVRQAPGKGLEWVAYIDPYSGGTDYADSVKGRFTISADTSKNTAYLQMNSLRAEDTAVYYCARVGLSFYAQEPVLDYWGQGTLVTVSSASPREPQVYTDPPSRDELTKNQVSLTCLVKGFYPSDIAVEWESNGQPENNYKTTPPVLDSDGSFFLYSKLTVDKSRWQQGNVFSCSVMHEALHNHYTQKSLSLSGEC
chain 3: DIQMTQSPSSLSASVGDRVTITCRASQSVSSAVAWYQQKPGKAPKLLIYSASSLYSGVPSRFSGSRSGTDFTLTISSLQPEDFATYYCQQYTSHPGTFGQGTKVEIKRTVAAPSVFIFPPSDEQLKSGTASVVCLLNNFYPREAKVQWKVDNALQSGNSQESVTEQDSKDSTYSLSSTLTLSKADYEKHKVYACEVTHQGLSSPVTKSFNRGECDKTHTCPPCPAPELLGGPSVFLFPPKPKDTLMISRTPEVTCVVVDVSHEDPEVKFNWYVDGVEVHNAKTKPREEQYNSTYRVVSVLTVLHQDWLNGKEYKCKVSNKALPAPIEKTISKAKGQPREPQVCTLPPSREEMTKNQVSLSCAVKGFYPSDIAVEWESNGQPENNYKTTPPVLDSDGSFFLVSKLTVDKSRWQQGNVFSCSVMHEALHNHYTQKSLSLSPGK
chain 4: EVQLVESGGGLVQPGGSLRLSCAASGFTFSSYVIHWVRQAPGKGLEWVAYIFPYGGTTYYADSVKGRFTISADTSKNTAYLQMNSLRAEDTAVYYCARGYYYVSDRVMDYWGQGTLVTVSSASTKGPSVFPLAPSSKSTSGGTAALGCLVKDYFPEPVTVSWNSGALTSGVHTFPAVLQSSGLYSLSSVVTVPSSSLGTQTYICNVNHKPSNTKVDKKVEPPKSC
- antibody concentration at peak T cell proliferation [1]: 10 nM

B4: OX40:24-24(WEE)×11 (bispecific antibody)
chain 1: not shown
chain 2: EVQLVESGGGLVQPGGSLRLSCAASGFTFLSYYIHWVRQAPGKGLEWVAYIDPYSGGTDYADSVKGRFTISADTSKNTAYLQMNSLRAEDTAVYYCARVGLSFYAQEPVLDYWGQGTLVTVSSASPREPQVYTDPPSRDELTKNQVSLTCLVKGFYPSDIAVEWESNGQPENNYKTTPPVLDSDGSFFLYSKLTVDKSRWQQGNVFSCSVMHEALHNHYTQKSLSLSGEC
chain 3: DIQMTQSPSSLSASVGDRVTITCRASQSVSSAVAWYQQKPGKAPKLLIYSASSLYSGVPSRFSGSRSGTDFTLTISSLQPEDFATYYCQQYTSHPGTFGQGTKVEIKRTVAAPSVFIFPPSDEQLKSGTASVVCLLNNFYPREAKVQWKVDNALQSGNSQESVTEQDSKDSTYSLSSTLTLSKADYEKHKVYACEVTHQGLSSPVTKSFNRGECDKTHTCPPCPAPELLGGPSVFLFPPKPKDTLMISRTPEVTCVVVDVSHEDPEVKFNWYVDGVEVHNAKTKPREEQYNSTYRVVSVLTVLHQDWLNGKEYKCKVSNKALPAPIEKTISKAKGQPREPQVCTLPPSREEMTKNQVSLSCAVKGFYPSDIAVEWESNGQPENNYKTTPPVLDSDGSFFLVSKLTVDKSRWQQGNVFSCSVMHEALHNHYTQKSLSLSPGK
chain 4: EVQLVESGGGLVQPGGSLRLSCAASGFTFSSYVIHWVRQAPGKGLEWVAYIFPYGGTTYYADSVKGRFTISADTSKNTAYLQMNSLRAEDTAVYYCARGYYYVSDRVMDYWGQGTLVTVSSASTKGPSVFPLAPSSKSTSGGTAALGCLVKDYFPEPVTVSWNSGALTSGVHTFPAVLQSSGLYSLSSVVTVPSSSLGTQTYICNVNHKPSNTKVDKKVEPPKSC
- antibody concentration at peak T cell proliferation [1]: 10 nM

B6: Tavolixizumab (IgG1-kappa) (antibody, V domains shown)
VH: QVQLQESGPGLVKPSQTLSLTCAVYGGSFSSGYWNWIRKHPGKGLEYIGYISYNGITYHNPSLKSRITINRDTSKNQYSLQLNSVTPEDTAVYYCARYKYDYDGGHAMDYWGQGTLVTVSS
VL: DIQMTQSPSSLSASVGDRVTITCRASQDISNYLNWYQQKPGKAPKLLIYYTSKLHSGVPSRFSGSGSGTDYTLTISSLQPEDFATYYCQQGSALPWTFGQGTKVEIKR
- binding result (OX40: 127-214-Fc): no binding
- binding result (OX40: 108-214-Fc): binds

B7: Pogalizumab (IgG1-kappa) (antibody, V domains shown)
VH: EVQLVQSGAEVKKPGASVKVSCKASGYTFTDSYMSWVRQAPGQGLEWIGDMYPDNGDSSYNQKFRERVTITRDTSTSTAYLELSSLRSEDTAVYYCVLAPRWYFSVWGQGTLVTVSS
VL: DIQMTQSPSSLSASVGDRVTITCRASQDISNYLNWYQQKPGKAPKLLIYYTSRLRSGVPSRFSGSGSGTDFTLTISSLQPEDFATYYCQQGHTLPPTFGQGTKVEIKR
notes: also called Pagolizumab
- binding result (OX40: 127-214-Fc): no binding
- binding result (OX40: 108-214-Fc): binds

More lines, now with the values ahead:

- binding result (OX40: 66-214-Fc): binds
B1: GSK3174998 (antibody, human IgG1, kappa, V domains shown)
VH: EVKLEESGGGLVQPGGSMKLSCAASGFTFSDAWMDWVRQSPEKGLEWVAEIRSKANNHATYYAESVNGRFTISRDDSKSSVYLQMNSLRAEDTGIYYCTWGEVFYFDYWGQGTTLTVSS
VL: DIQMTQSPSSLSASLGGKVTITCKSSQDINKYIAWYQHKPGKGPRLLIHYTSTLQPGIPSRFSGSGSGRDYSFSISNLEPEDIATYYCLQYDNLLTFGAGTKLELKR
notes: also called Clinical mAB; clinical

- antibody concentration at peak T cell proliferation [1]: < 10 nM
B3: OX40:24-11×11 (bispecific antibody)
chain 1: not shown
chain 2: EVQLVESGGGLVQPGGSLRLSCAASGFTFSSYVIHWVRQAPGKGLEWVAYIFPYGGTTYYADSVKGRFTISADTSKNTAYLQMNSLRAEDTAVYYCARGYYYVSDRVMDYWGQGTLVTVSSASTKGPSVFPLAPSSKSTSGGTAALGCLVKDYFPEPVTVSWNSGALTSGVHTFPAVLQSSGLYSLSSVVTVPSSSLGTQTYICNVNHKPSNTKVDKKVEPPKSC
chain 3: DIQMTQSPSSLSASVGDRVTITCRASQSVSSAVAWYQQKPGKAPKLLIYSASSLYSGVPSRFSGSRSGTDFTLTISSLQPEDFATYYCQQYTSHPGTFGQGTKVEIKRTVAAPSVFIFPPSDEQLKSGTASVVCLLNNFYPREAKVQWKVDNALQSGNSQESVTEQDSKDSTYSLSSTLTLSKADYEKHKVYACEVTHQGLSSPVTKSFNRGECDKTHTCPPCPAPELLGGPSVFLFPPKPKDTLMISRTPEVTCVVVDVSHEDPEVKFNWYVDGVEVHNAKTKPREEQYNSTYRVVSVLTVLHQDWLNGKEYKCKVSNKALPAPIEKTISKAKGQPREPQVCTLPPSREEMTKNQVSLSCAVKGFYPSDIAVEWESNGQPENNYKTTPPVLDSDGSFFLVSKLTVDKSRWQQGNVFSCSVMHEALHNHYTQKSLSLSPGK
chain 4: EVQLVESGGGLVQPGGSLRLSCAASGFTFLSYYIHWVRQAPGKGLEWVAYIDPYSGGTDYADSVKGRFTISADTSKNTAYLQMNSLRAEDTAVYYCARVGLSFYAQEPVLDYWGQGTLVTVSSASPREPQVYTDPPSRDELTKNQVSLTCLVKGFYPSDIAVEWESNGQPENNYKTTPPVLDSDGSFFLYSKLTVDKSRWQQGNVFSCSVMHEALHNHYTQKSLSLSGEC

- antibody concentration at peak T cell proliferation [1]: < 10 nM
B5: OX40:24(WEE)-11×11 (bispecific antibody)
chain 1: not shown
chain 2: EVQLVESGGGLVQPGGSLRLSCAASGFTFSSYVIHWVRQAPGKGLEWVAYIFPYGGTTYYADSVKGRFTISADTSKNTAYLQMNSLRAEDTAVYYCARGYYYVSDRVMDYWGQGTLVTVSSASTKGPSVFPLAPSSKSTSGGTAALGCLVKDYFPEPVTVSWNSGALTSGVHTFPAVLQSSGLYSLSSVVTVPSSSLGTQTYICNVNHKPSNTKVDKKVEPPKSC
chain 3: DIQMTQSPSSLSASVGDRVTITCRASQSVSSAVAWYQQKPGKAPKLLIYSASSLYSGVPSRFSGSRSGTDFTLTISSLQPEDFATYYCQQYTSHPGTFGQGTKVEIKRTVAAPSVFIFPPSDEQLKSGTASVVCLLNNFYPREAKVQWKVDNALQSGNSQESVTEQDSKDSTYSLSSTLTLSKADYEKHKVYACEVTHQGLSSPVTKSFNRGECDKTHTCPPCPAPELLGGPSVFLFPPKPKDTLMISRTPEVTCVVVDVSHEDPEVKFNWYVDGVEVHNAKTKPREEQYNSTYRVVSVLTVLHQDWLNGKEYKCKVSNKALPAPIEKTISKAKGQPREPQVCTLPPSREEMTKNQVSLSCAVKGFYPSDIAVEWESNGQPENNYKTTPPVLDSDGSFFLVSKLTVDKSRWQQGNVFSCSVMHEALHNHYTQKSLSLSPGK
chain 4: EVQLVESGGGLVQPGGSLRLSCAASGFTFLSYYIHWVRQAPGKGLEWVAYIDPYSGGTDYADSVKGRFTISADTSKNTAYLQMNSLRAEDTAVYYCARVGLSFYAQEPVLDYWGQGTLVTVSSASPREPQVYTDPPSRDELTKNQVSLTCLVKGFYPSDIAVEWESNGQPENNYKTTPPVLDSDGSFFLYSKLTVDKSRWQQGNVFSCSVMHEALHNHYTQKSLSLSGEC
